Assay results reported in article PMC10784468 (Nature Communications, 2024).
Where two headings read alike, the source gives them in different places. Positions of bridges follow the written chain, without caps; N, C: chain ends. Residues, ends and D or L forms follow the SMILES beside them. *: point of attachment. X1 = O=C(O)c1ccc(-c2c3nc(c(-c4ccc(C(=O)O)cc4)c4ccc([nH]4)c(-c4ccc(C(=O)*)cc4)c4nc(c(-c5ccc(C(=O)O)cc5)c5ccc2[nH]5)C=C4)C=C3)cc1; X2 = O=C(O)C/C(=C/C(=O)*)C(=O)O

Tests used:
786-O xenograft tumors = experiment: In vivo antitumor evaluation in large tumor model (786-O); design: species or system BALB/c nude mice; conditions: six i.v. injections at 2-days intervals, Gi-F-CAA 8 mg/kg, Bevacizumab 5 mg/kg
EJ cells = experiment: Cellular imaging (uptake) by CLSM; format: cell-based; conditions: Cy7-labeled, 40 μM, 2 h
Description: Initially, EJ cells (5 × 10^5) were cultured in confocal dish with a CO2 incubator overnight at 37 °C. Subsequently, the EJ cells were incubated with Cy labeled Gi-F-CAA (40 μM, pH = 7.4) and Cy labeled Gi-F-CAA (40 μM, pH = 6.5) for 2 h followed by washing with PBS for three times.

[1] = for Plasma Drug concentration: fluorescence; for Tumor Drug concentration: tumor lysate fluorescence
Description: Moreover, ex vivo fluorescence imaging of tumor and major organs was performed to investigate the dose-dependent tumor accumulation of Gi-F-CAA (Fig. 3e and Supplementary Fig. 25). […] Subsequently, time-dependent in vivo fluorescence imaging of EJ xenograft mice was conducted to investigate the in vivo biodistribution and metabolism of Gi-F-CAA after administrated with Gi-F-CAA (8 mg/kg in 100 μL PBS). […] Representative time-dependent fluorescence images of tumor tissue lysates and plasma were acquired after intravenous administration with Gi-F-CAA (8 mg/kg in 100 μL PBS) (Fig. 3h).
Firstly, A density of 5 × 10^6 EJ cell resuspended in Matrigel were subcutaneously injected into the right hind of mice to construct EJ xenograft model. When the tumor volume reached about 200–400 mm^3, the mice were administrated with Cy labeled Gi-F (8 mg/kg in 100 μL PBS), Cy labeled Gi-F-SA (8 mg/kg in 100 μL PBS) and Cy labeled Gi-F-CAA (8 mg/kg in 100 μL PBS) by intravenous injection for in vivo fluorescence imaging at different timepoints (10 min, 20 min, 40 min, 1 h, 2 h, 4 h, 8 h, 12 h and 24 h) with in vivo imaging system (IVIS). Meanwhile, the EJ xenograft mice were sacrificed for collecting major organs and tumors to evaluate the biodistribution of Gi-F-CAA.

EJ tumor tissues [2] = experiment: Tumor iron content detection (Prussian blue); format: in vivo, BALB/c nude mice; conditions: 8 mg/kg i.v.
Description: EJ tumor tissues were collected under euthanasia at the end of treatment and washed with PBS for 3 times. Afterwards, the DAB-enhanced Prussian blue iron staining was performed with Wuhan Servicebio Technology Co., Ltd.

EJ tumor tissues [3] = experiment: Tumor ROS content detection; format: in vivo, BALB/c nude mice; conditions: 8 mg/kg i.v., versus PBS, Gi-F and Gi-F-SA
Description: EJ tumor tissues were collected under euthanasia at the end of treatment and washed with PBS for 3 times. Next, DCFH-DA fluorescence staining was carried out by Wuhan Servicebio Technology Co., Ltd.

[4] = EJ xenograft mice, i.v. 8 mg/kg, 0.017 h, mice 1
[5] = EJ xenograft mice, i.v. 8 mg/kg, 0.017 h, mice 2
[6] = EJ xenograft mice, i.v. 8 mg/kg, 0.017 h, mice 3
[7] = EJ xenograft mice, i.v. 8 mg/kg, 0.083 h, mice 1
[8] = EJ xenograft mice, i.v. 8 mg/kg, 0.083 h, mice 2
[9] = EJ xenograft mice, i.v. 8 mg/kg, 0.083 h, mice 3
[10] = EJ xenograft mice, i.v. 8 mg/kg, 0.167 h, mice 1
[11] = EJ xenograft mice, i.v. 8 mg/kg, 0.167 h, mice 2
[12] = EJ xenograft mice, i.v. 8 mg/kg, 0.167 h, mice 3
[13] = EJ xenograft mice, i.v. 8 mg/kg, 0.25 h, mice 1
[14] = EJ xenograft mice, i.v. 8 mg/kg, 0.25 h, mice 2
[15] = EJ xenograft mice, i.v. 8 mg/kg, 0.25 h, mice 3
[16] = EJ xenograft mice, i.v. 8 mg/kg, 0.5 h, mice 1
[17] = EJ xenograft mice, i.v. 8 mg/kg, 0.5 h, mice 2
[18] = EJ xenograft mice, i.v. 8 mg/kg, 0.5 h, mice 3
[19] = EJ xenograft mice, i.v. 8 mg/kg, 0.75 h, mice 1
[20] = EJ xenograft mice, i.v. 8 mg/kg, 0.75 h, mice 2
[21] = EJ xenograft mice, i.v. 8 mg/kg, 0.75 h, mice 3
[22] = EJ xenograft mice, i.v. 8 mg/kg, 1 h, mice 1
[23] = EJ xenograft mice, i.v. 8 mg/kg, 1 h, mice 2
[24] = EJ xenograft mice, i.v. 8 mg/kg, 1 h, mice 3
[25] = EJ xenograft mice, i.v. 8 mg/kg, 2 h, mice 1
[26] = EJ xenograft mice, i.v. 8 mg/kg, 2 h, mice 2
[27] = EJ xenograft mice, i.v. 8 mg/kg, 2 h, mice 3
[28] = EJ xenograft mice, i.v. 8 mg/kg, 4 h, mice 1
[29] = EJ xenograft mice, i.v. 8 mg/kg, 4 h, mice 2
[30] = EJ xenograft mice, i.v. 8 mg/kg, 4 h, mice 3
[31] = EJ xenograft mice, i.v. 8 mg/kg, 8 h, mice 1
[32] = EJ xenograft mice, i.v. 8 mg/kg, 8 h, mice 2
[33] = EJ xenograft mice, i.v. 8 mg/kg, 8 h, mice 3
[34] = EJ xenograft mice, i.v. 8 mg/kg, 12 h, mice 1
[35] = EJ xenograft mice, i.v. 8 mg/kg, 12 h, mice 2
[36] = EJ xenograft mice, i.v. 8 mg/kg, 12 h, mice 3
[37] = EJ xenograft mice, i.v. 8 mg/kg, 24 h, mice 1
[38] = EJ xenograft mice, i.v. 8 mg/kg, 24 h, mice 2
[39] = EJ xenograft mice, i.v. 8 mg/kg, 24 h, mice 3

In the case of `CC(C)C[C@H](NC(=O)c1ccc(-c2c3nc(c(-c4ccc(C(=O)O)cc4)c4ccc([nH]4)c(-c4ccc(C(=O)O)cc4)c4nc(c(-c5ccc(C(=O)O)cc5)c5ccc2[nH]5)C=C4)C=C3)cc1)C(=O)N[C@@H](CCCCNC(=O)/C=C(/CC(=O)O)C(=O)O)C(=O)N[C@@H](CC(C)C)C(=O)N[C@@H](CCCCN)C(=O)N[C@@H](CC(C)C)C(=O)N[C@@H](CCCCNC(=O)/C=C(/CC(=O)O)C(=O)O)C(=O)NCC(=O)N[C@@H](C)C(=O)N[C@H]1CSSC[C@@H](C(=O)N2CCC[C@H]2C(=O)N[C@H](C(=O)O)C(C)C)NC(=O)[C@@H]2CCCN2C(=O)[C@H](Cc2ccc(O)cc2)NC(=O)[C@H](CC(C)C)NC(=O)[C@@H]2CCCN2C(=O)[C@H](CC(C)C)NC(=O)[C@H](Cc2c[nH]c3ccccc23)NC(=O)[C@H](CC(N)=O)NC1=O` [Gi-F-CAA] (X1-LK(X2)LKLK(X2)GACNWLPLYPCPV-OH; disulfide 9-17; C-terminus assumed), the “tumor volume course in large tumors (~500 mm^3)” value (786-O xenograft tumors) is reported as “declining tendency for 10 days and maintained a long-termed tumor growth inhibition”, the “cellular uptake (CLSM) at pH 6.5” value (EJ cells; pH 6.5) is reported as “obvious fluorescence signal was observed in the cytoplasm” and the “cellular uptake (CLSM) at pH 7.4” value (EJ cells; pH 7.4) is reported as “barely detected”. For the same compound, the “blood circulation half-life (t1/2)” value ([1]; EJ xenograft mice, i.v. 8 mg/kg in 100 μL PBS, plasma fluorescence, n = 3 mice) was 1.03 ± 0.192 h, the “Plasma Drug concentration” value [1, 4] was 33.86 µM and the “Plasma Drug concentration” value [1, 5] was 27.32 µM. The “Plasma Drug concentration” value [1, 6] was 28.25 µM, the “Plasma Drug concentration” value [1, 7] was 31.76 µM and the “Plasma Drug concentration” value [1, 8] was 25.29 µM. For the same compound, the “Plasma Drug concentration” value [1, 9] was 26.44 µM, the “Plasma Drug concentration” value [1, 10] was 24.34 µM and the “Plasma Drug concentration” value [1, 11] was 19.45 µM. For the same compound, the “Plasma Drug concentration” value [1, 12] was 20.15 µM, the “Plasma Drug concentration” value [1, 13] was 19.65 µM and the “Plasma Drug concentration” value [1, 14] was 15.52 µM. For the same compound, the “Plasma Drug concentration” value [1, 15] was 16.27 µM, the “Plasma Drug concentration” value [1, 16] was 15.69 µM and the “Plasma Drug concentration” value [1, 17] was 12.64 µM. The “Plasma Drug concentration” value [1, 18] was 13.24 µM, the “Plasma Drug concentration” value [1, 19] was 14.64 µM and the “Plasma Drug concentration” value [1, 20] was 11.89 µM. For the same compound, the “Plasma Drug concentration” value [1, 21] was 12.38 µM, the “Plasma Drug concentration” value [1, 22] was 13.02 µM and the “Plasma Drug concentration” value [1, 23] was 10.61 µM. The “Plasma Drug concentration” value [1, 24] was 11.06 µM, the “Plasma Drug concentration” value [1, 25] was 7.79 µM and the “Plasma Drug concentration” value [1, 26] was 8.53 µM. The “Plasma Drug concentration” value [1, 27] was 9.07 µM, the “Plasma Drug concentration” value [1, 28] was 6.64 µM and the “Plasma Drug concentration” value [1, 29] was 6.59 µM. The “Plasma Drug concentration” value [1, 30] was 6.96 µM, the “Plasma Drug concentration” value [1, 31] was 3.65 µM and the “Plasma Drug concentration” value [1, 32] was 4.12 µM. The “Plasma Drug concentration” value [1, 33] was 4.41 µM, the “Plasma Drug concentration” value [1, 34] was 2.66 µM and the “Plasma Drug concentration” value [1, 35] was 3.28 µM. For the same compound, the “Plasma Drug concentration” value [1, 36] was 3.5 µM, the “Plasma Drug concentration” value [1, 37] was 1.38 µM and the “Plasma Drug concentration” value [1, 38] was 1.99 µM. The “Plasma Drug concentration” value [1, 39] was 2.17 µM, the “Tumor Drug concentration” value [1, 4] was 11.93 µM and the “Tumor Drug concentration” value [1, 5] was 13.59 µM. For the same compound, the “Tumor Drug concentration” value [1, 6] was 9.61 µM, the “Tumor Drug concentration” value [1, 7] was 13.61 µM and the “Tumor Drug concentration” value [1, 8] was 15.1 µM. The “Tumor Drug concentration” value [1, 9] was 10.98 µM, the “Tumor Drug concentration” value [1, 10] was 14.15 µM and the “Tumor Drug concentration” value [1, 11] was 15.1 µM. For the same compound, the “Tumor Drug concentration” value [1, 12] was 11.74 µM, the “Tumor Drug concentration” value [1, 13] was 15.43 µM and the “Tumor Drug concentration” value [1, 14] was 16.04 µM. The “Tumor Drug concentration” value [1, 15] was 12.46 µM, the “Tumor Drug concentration” value [1, 16] was 17.54 µM and the “Tumor Drug concentration” value [1, 17] was 16.74 µM. The “Tumor Drug concentration” value [1, 18] was 14.43 µM, the “Tumor Drug concentration” value [1, 19] was 16.03 µM and the “Tumor Drug concentration” value [1, 20] was 16.19 µM. For the same compound, the “Tumor Drug concentration” value [1, 21] was 13.02 µM, the “Tumor Drug concentration” value [1, 22] was 14.49 µM and the “Tumor Drug concentration” value [1, 23] was 15.3 µM. For the same compound, the “Tumor Drug concentration” value [1, 24] was 11.94 µM, the “Tumor Drug concentration” value [1, 25] was 12.9 µM and the “Tumor Drug concentration” value [1, 26] was 13.97 µM. The “Tumor Drug concentration” value [1, 27] was 10.6 µM, the “Tumor Drug concentration” value [1, 28] was 10.23 µM and the “Tumor Drug concentration” value [1, 29] was 11.8 µM. The “Tumor Drug concentration” value [1, 30] was 8.38 µM, the “Tumor Drug concentration” value [1, 31] was 7.25 µM and the “Tumor Drug concentration” value [1, 32] was 8.28 µM. For the same compound, the “Tumor Drug concentration” value [1, 33] was 6.04 µM, the “Tumor Drug concentration” value [1, 34] was 5.72 µM and the “Tumor Drug concentration” value [1, 35] was 6.55 µM. The “Tumor Drug concentration” value [1, 36] was 4.61 µM, the “Tumor Drug concentration” value [1, 37] was 4.93 µM and the “Tumor Drug concentration” value [1, 38] was 5.65 µM. For the same compound, the “Tumor Drug concentration” value [1, 39] was 3.95 µM, the “tumor tissue lysate signal relative to plasma” value ([1]; i.v. 8 mg/kg, from 1 h to 24 h) was “about 3 fold” and the level at time molar ([1]; mouse, in vivo, iv, 8 mg/kg) was 16.2 µM. The “iron levels of tumor tissues versus other groups” value (EJ tumor tissues [2]) was “substantially higher” and the “ROS levels of tumor tissues” value (EJ tumor tissues [3]) was “elevation”.
